Molecular target: Hsp90alpha (UniProt P07900 P07900:2-732)
Experiment: filter; nitrocellulose double-filter binding, printed as binding constant
Details: label: 5' biotin-TEG, radiolabel
Procedure: The protein-bound ASOs were transferred to a nitrocellulose membrane and the signal intensity was determined. As a control, no significant binding was found for a PS/DNA ASO. The specific binding of protein-bound ASO to the nitrocellulose membrane was confirmed using a double-filter binding assay for PS/cEt and PS/LNA ASOs. The unbound ASOs were attracted using a Hybond-N+Nylon membrane under the Hybond ECL nitrocellulose membrane.

## CTGCTAGCCTCTGGATTTGA (XNA, 5-10-5 gapmer, LNA wings 1-5 and 16-20, 2'-deoxy gap, all C 5mC, full PS) [Isis 586184 (PS/LNA)]
  Kd: 17.7 nM

Source: US20180148718, “COMPOUNDS AND METHODS FOR INCREASING ANTISENSE ACTIVITY” (Ionis Pharmaceuticals, Inc., published 2018)
